Experimental data reported in patent US20090263894A1 (AbbVie / Abbott, published 2009).

T1: Mutant C87S NGAL rAg (CHO cell clone #734) (human, UniProt P80188 21-198, glycosylated (CHO))
T1 construct: also called NGAL mutant C87S antigen; mutant C87S NGAL rAg CHO 734
T1 chain: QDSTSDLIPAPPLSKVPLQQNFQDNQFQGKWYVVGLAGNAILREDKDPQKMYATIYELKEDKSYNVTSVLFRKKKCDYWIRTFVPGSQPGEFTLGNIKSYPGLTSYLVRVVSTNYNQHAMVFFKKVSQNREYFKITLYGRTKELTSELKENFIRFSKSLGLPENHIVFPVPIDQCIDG

T2: human NGAL (C87S) produced in E. coli, NGAL(+)mut8 (human, UniProt P80188 21-198, 15N/2H or 13C/15N isotope label (NMR, Example 8); BHQ-10S quencher label (KD titrations, Example 9))
T2 construct: also called BHQ-NGAL; isotope-labeled human NGAL
T2 chain: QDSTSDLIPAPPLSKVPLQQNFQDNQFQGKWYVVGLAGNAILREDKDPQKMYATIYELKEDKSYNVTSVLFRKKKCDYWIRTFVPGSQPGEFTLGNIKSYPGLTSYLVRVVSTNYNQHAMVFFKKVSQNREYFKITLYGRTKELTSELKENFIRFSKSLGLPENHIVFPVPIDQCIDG


Tests used:
[1] = biological target: T3, Wild-type NGAL rAg (CHO clone #662) (human, UniProt P80188 21-198, glycosylated (CHO)); experiment: KinExA, IgG in solution
T3 construct: also called NGAL wild-type antigen; wild-type NGAL rAg CHO 662
Description: (§1) The amount of free binding sites was determined by injecting the antibody/human NGAL reaction mixture over human NGAL immobilized on solid-phase Polymethyl-methacrylate (PMMA) beads. The free anti-NGAL antibody bound to the human NGAL coated beads were subsequently detected using the fluorescent CY5-conjugated goat anti-mouse polyclonal antibody (GAM-Cy5). The degree of GAM-Cy5 bound was proportional to the amount of anti-NGAL IgG bound to the human NGAL-coated beads. The KD was determined by analyzing the amount of free binding sites versus the amount of antigen present in the reaction sample using software provided by the manufacturer (Sapidyne Instruments, Boise, Id.). Experiments were performed in a PBS, pH 7.4, and 1% BSA reaction diluent.

[2] = biological target: T1, Mutant C87S NGAL rAg (CHO cell clone …); experiment: KinExA, IgG in solution
Description: as §1

[3] = biological target: T4, human NGAL antigen (Neutrophil Gelatinase Associated Lipocalin) (human, UniProt P80188 21-198, biotin label in the hybridoma EIAs); experiment: SPR (BIAcore): mAb captured on anti-mouse Fc, 100 nM NGAL
T4 construct: also called NGAL-Bt; biotin labeled NGAL
Description: Using BIAcore, NGAL hybrid supernatants are evaluated for relative binding affinity to NGAL and grouped accordingly in NGAL binding epitope groups. The affinity assay was completed on a goat anti-mouse IgG Fc Capture Biosensor as follows. Flow cells were first equilibrated with a running buffer (hereinafter “Running Buffer”) that contains HBS-EP buffer spiked with 0.1% BSA and 0.1% CM-Dextran), at 10 μL/min. Next, 13 μL of supernatant was floated across individual flow cells capturing anti-NGAL antibody from the supernatant onto the biosensor, and with one flow cell being left blank as a reference flow cell. The flow cells then were washed for 5 minutes at 50 μL/min with Running Buffer, and 150 μL of NGAL antigen at a 100 nM concentration was injected across the chip followed by 5 minutes of Running Buffer. The relative binding kinetics, association and dissociation, were monitored via sensorgrams. The sensorgrams were analyzed using Scrubber 2.0 software (BioLogic Software Pty Ltd., Australia) to determine association and dissociation rates, as well as overall KD.

[4] = biological target: T2, human NGAL (C87S) produced in E. coli, …; experiment: DC-FCCS sandwich formation in solution; second antibody mAb 809
Description: (§2) Samples were placed in a 96-microwell optical bottom plate (Nalge Nunc International, Rochester, N.Y.). The excitation wavelength was set at 810 nm, 3 mW on the sample. Sampling rate was set at 200 KHz and 10 million points were collected for each measurement. Each sample was measured twice. Experiments were performed on each sample after one-hour incubation.
(§3) Labeled antibodies were mixed at equal concentration (40 μL of 10 nM mAbs) and ligand (15 nM NGAL) was added to the solution. Cross-correlation curves before and after adding NGAL were calculated from the data sets acquired in each channel and the data were normalized.
(§4) For illustration purposes, a relative number was assigned to each antibody pair, which, in fact, is the ratio of Gx(0) values before and after the addition of NGAL to the antibodies (Table 13). All ratio values were corrected for the background. A value of “1” indicates no sandwich formation, values between 1.1 and 2.5 indicate a poor sandwich formation, and all values above 2.6 indicate productive antibody pairing.

[5] = biological target: T2, human NGAL (C87S) produced in E. coli, …; experiment: DC-FCCS sandwich formation in solution; second antibody mAb 903
Description: as §2, §3, §4

[6] = biological target: T2, human NGAL (C87S) produced in E. coli, …; experiment: DC-FCCS sandwich formation in solution; second antibody mAb 2322
Description: as §2, §3, §4

[7] = biological target: T2, human NGAL (C87S) produced in E. coli, …; experiment: fluorescence quenching titration: ALEXA 488-mAb with BHQ-NGAL in solution
Description: (§5) The equilibrium dissociation constants (KD) of NGAL and six anti-NGAL antibodies were measured in direct binding experiments. […] After 30 minutes incubation, all samples were measured on an SLM 8100 photon counting spectrofluorimeter. Samples were excited at 480 nm, and the emission was collected through a 530 nm (30 nm bandwidth) interference filter (Chroma Technology Corp., Rockingham, Vt.). All binding measurements were performed in 10 mM HEPES buffer, pH 7.4, containing 0.15 M NaCl, 3 mM EDTA, and 0.005% surfactant P20.
(§6) where Ligandₜₒₜₐₗ and ABSₜₒₜₐₗ are the BHQ-NGAL concentration and total antibody binding sites, respectively, and Fbound is the fraction of bound antibody sites. The binding data were fitted with a simple binding model to obtain the equilibrium dissociation constant (KD) according to equation [4]: […]

[8] = biological target: T2, human NGAL (C87S) produced in E. coli, …; experiment: fluorescence quenching titration in solution: ALEXA 488-labelled mAb at 0.05 nM, BHQ-labelled NGAL varied, fraction bound against free BHQ-NGAL
Description: as §5, §6

Kd [1] | Kd [2] | Kd [3] | koff [3] | kon [3] | ratio of Gx(0) before and after adding NGAL [4] | ratio of Gx(0) before and after adding NGAL [5] | ratio of Gx(0) before and after adding NGAL [6] | Kd [7] | EC50 (read off the curve) [8] | Binder
0.024 nM | 0.023 nM | 0.155 nM | 7.28e-05 s⁻¹ | 468000 M⁻¹ s⁻¹ | 1.5 | 3.5 | 0.7 | 0.06 nM | ~0.06 nM | anti-NGAL monoclonal antibody 1-2322-455 (antibody, V domains shown) VH: EVQLVESGGGLVQPGGSLKLSCAASGFTFNNYYMSWVRQTPERRLEWVAYISSSGGSTYYSDSVRGRFTISRDTARNTLYLQMTSLKSEDTAMYYCARHFGDYSYFDYWGQGTTLTVSS VL: DIQMTQSPASLSASVGETVTITCRASENFYSYLAWYQQKQGKSPQLLVYNAKTLAEGVPSRFSGSGSGTQFSLKINSLQPEDFGTYYCQHHYDIPLTFGAGTKLELKR
0.32 nM | 1.1 nM | 1.01 nM | 0.000272 s⁻¹ | 269000 M⁻¹ s⁻¹ | 3 | 1 | 3.7 | 1.2 nM | ~1 nM | anti-NGAL monoclonal antibody 1-903-430 (antibody, V domains shown) VH: KIQLVQSGPELKKPGETVKISCKASGYTFTNYGMNWVKQAPGKGLKWMGWININTGEPTYAEEFKGRFAFSLETSATTAFLQINNLKNEDTATYLCARDSYSGGFDYWGQGTIVTVSS VL: DIVMTQSPSSLSVSAGEKVTLSCKSSQSLLISGDQKNYLAWYQQKPGQPPKLLIYGASTRDSGVPDRFTGSGSGADFTLTISSVQAEDLAVYYCQNDHSFPPTFGAGTKLELKR
